In patent US20260055173A1 (published 2026):

B1: Bevacizumab (antibody, V domains shown)
VH: EVQLVESGGGLVQPGGSLRLSCAASGYTFTNYGMNWVRQAPGKGLEWVGWINTYTGEPTYAADFKRRFTFSLDTSKSTAYLQMNSLRAEDTAVYYCAKYPHYYGSSHWYFDVWGQGTLVTVSS
VL: DIQMTQSPSSLSASVGDRVTITCSASQDISNYLNWYQQKPGKAPKVLIYFTSSLHSGVPSRFSGSGSGTDFTLTISSLQPEDFATYYCQQYSTVPWTFGQGTKVEIK
B2: Strain #48 VHH (VHH, not shown: a dimerising Fc or GST)
VHH: EVQLLESGGGLVQPGGSLRLSCAASGFTFSTSTMSWYRQAPGKERELVSFITSAGATTYYADSVKGRFTMSRDNSKNTVYLQMNSLRAEDTAVYYCRALVTLWNVYWGQGTLVTVSS
notes: Humanized, stabilized variant of #6 (11 Kabat-numbered mutations)
B3: Strain #6 VHH (Fc fusion)
chain: QVQLQESGGGLVQPGGSLRLSCAASGFTFSTSTMSWYRQAPGKERELVAFITSAGATTNYADSVKDRFTMSRDNDKNTVYLQMNVLKPEDTAMYYCRALVTLWNVYWGQGTQVTVSS
notes: also called strain 6 (#6); not shown: Fc of the VHH-Fc construct
B4: #16 bispecific antibody (bispecific antibody, human IgG1, kappa)
heavy: QVQLVQSGVEVKKPGASVKVSCKASGYTFTNYYMYWVRQAPGQGLEWMGGINPSNGGTNFNEKFKNRVTLTTDSSTTTAYMELKSLQFDDTAVYYCARRDYRFDMGFDYWGQGTTVTVSSASTKGPSVFPLAPSSKSTSGGTAALGCLVKDYFPEPVTVSWNSGALTSGVHTFPAVLQSSGLYSLSSVVTVPSSSLGTQTYICNVNHKPSNTKVDKKVEPKSCDKTHTCPPCPAPEAEGAPSVFLFPPKPKDTLMISRTPEVTCVVVDVSHEDPEVKFNWYVDGVEVHNAKTKPREEQYNSTYRVVSVLTVLHQDWLNGKEYKCKVSNKALPSSIEKTISKAKGQPREPQVYTLPPSREEMTKNQVSLTCLVKGFYPSDIAVEWESNGQPENNYKTTPPVLDSDGSFFLYSKLTVDKSRWQQGNVFSCSVMHEALHNHYTQKSLSLSPGEVQLLESGGGLVQPGGSLRLSCAASGFTFSTSTMSWYRQAPGKERELVSFITSAGATTYYADSVKGRFTMSRDNSKNTVYLQMNSLRAEDTAVYYCRALVTLWNVYWGQGTLVTVSS
light: EIVLTQSPATLSLSPGERATLSCRASKGVSTSGYSYLHWYQQKPGQAPRLLIYLASYLESGVPARFSGSGSGTDFTLTISSLEPEDFAVYYCQHSRDLPLTFGGGTKVEIKRTVAAPSVFIFPPSDEQLKSGTASVVCLLNNFYPREAKVQWKVDNALQSGNSQESVTEQDSKDSTYSLSSTLTLSKADYEKHKVYACEVTHQGLSSPVTKSFNRGEC
notes: Pembrolizumab-based anti-PD-1 IgG with #48 VHH at the C-terminus of the heavy chain; 2+2 valency; functionally silent IgG1 Fc (AEASS)

How the values were obtained:
[1] = target: T1, human PD-1 (ACRO, His tag) (human, UniProt Q15116 25-167); experiment: dual (bridging) ELISA: human PD-1 (His tag) coated, antibody, then biotinylated human VEGF, streptavidin-HRP
T1 construct: not shown: His tag
Description: (§1) The order of the binding to VEGF and PD-1 was changed for dual ELISA detection. A 96-well ELISA plate was coated with 1 μg/mL human PD-1 (ACRO, His tag) overnight, washed and blocked for 1 hour. […] TMB solution was added for color development, and the OD450 nm absorbance value was read on a microplate reader.

[2] = target: monkey PD-1 (ACRO, His tag) (monkey, UniProt B0LAJ3 25-170); experiment: ELISA, monkey PD-1 (His tag) coated, anti-human IgG Fc-HRP
Description: The binding of candidate molecules and competitor to antigens of different species was detected by ELISA. […] The binding of antibodies to monkey PD-1 was detected by ELISA. An ELISA plate was coated with 1 μg/mL monkey PD-1 (ACRO, His tag) overnight and blocked. Subsequently, the plate was added with gradient dilutions of the sample to be tested and the control antibody, incubated and washed. Then, the plate was added with HRP-labeled anti-human IgG Fc secondary antibody, incubated and washed. After TMB solution was added for color development, the OD450 absorbance value was read on a microplate reader (see Table 15).

[3] = target: T1, human PD-1 (ACRO, His tag); experiment: ELISA, human PD-1 (His tag) coated, anti-human IgG Fc-HRP
Description: (§2) The binding of the antibody to human PD-1 was detected by ELISA. 1 μg/mL human PD-1 (ACRO, His tag) was coated on an ELISA plate overnight and blocked. Subsequently, the plate was added with gradient dilutions of the bispecific antibody and the control antibody, incubated and washed. Then, the plate was added with HRP-labeled anti-human IgG Fc secondary antibody, incubated and washed. After TMB solution was added for color development, the OD450 absorbance value was read on a microplate reader (see Table 12). […] Subsequently, the plate was added with gradient dilutions of the sample to be tested and the control antibody, incubated and washed. Then, the plated was added with HRP-labeled anti-human IgG Fc secondary antibody, incubated and washed. After TMB solution was added for color development, the OD450 absorbance value was read on a microplate reader (see Table 13). […] (The control substances were all obtained by in-house expression and purification)

[4] = target: T2, human VEGF (ACRO, His tag) (human, UniProt P15692-4 27-191, limits assumed); experiment: ELISA, human VEGF (His tag) coated, anti-human IgG Fc-HRP
T2 construct: not shown: His tag
Description: as §2

[5] = target: T3, biotin-labeled human VEGF (ACRO, biotinylated protein) (human, UniProt P15692-4 27-191, limits assumed, biotinylated (site not stated)); experiment: competition ELISA: human VEGFR2 (Fc tag) coated, antibody mixed with biotinylated human VEGF, streptavidin-HRP
Description: (§3) ELISA plates were respectively coated with 2 μg/mL human VEGFR1 and 5 μg/mL human VEGFR2 (in-house constructed and expressed, Fc tag) overnight, washed and blocked. […] Then the plates were added with HRP-labeled streptavidin and incubated for 1 hour. After TMB solution was added for color development, the OD450 nm absorbance value was read on a microplate reader.

[6] = target: T4, human PD-1 (ACRO, Fc tag) (human, UniProt Q15116 25-167); experiment: competition ELISA: human PD-1 (Fc tag) coated, antibody mixed with human PD-L1 (His tag); text: 'except for #48, which only bound to VEGF'
T4 construct: not shown: Fc tag
Description: (§4) An ELISA plate was coated with 1 ug/mL of human PD-1 (ACRO, Fc tag) overnight, washed and blocked. […] Then the plate was added with HRP-labeled anti-His antibody, and incubated for 1 hour. After TMB solution was added for color development, the OD450 absorbance value was read on a microplate reader (see Table 16).

[7] = target: T1, human PD-1 (ACRO, His tag); experiment: dual (bridging) ELISA: human PD-1 (His tag) coated, antibody, then biotinylated human VEGF; 'A single targeting antibody failed to bind to two targets simultaneously'
Description: as §1

human VEGF-A = human VEGF-A (human, UniProt P15692-4 27-191, limits assumed); experiment: ELISA, VHH-Fc expression supernatant on human VEGF-A
mouse VEGF-A = target: T5, mouse VEGF-A (mouse, UniProt Q00731-2 27-190, limits assumed); experiment: ELISA, VHH-Fc expression supernatant on mouse VEGF-A
T5 sequence (looked up): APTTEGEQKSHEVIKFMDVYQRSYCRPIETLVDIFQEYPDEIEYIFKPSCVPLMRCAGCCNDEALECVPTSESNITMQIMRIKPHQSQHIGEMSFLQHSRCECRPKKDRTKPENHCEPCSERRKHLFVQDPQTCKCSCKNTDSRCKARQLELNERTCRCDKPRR

VEGF = experiment: cell-based or functional assay
[8] = target: T3, biotin-labeled human VEGF (ACRO, …); experiment: competition ELISA: human VEGFR1 (Fc tag) coated, antibody mixed with biotinylated human VEGF, streptavidin-HRP
Description: as §3

[9] = target: human VEGF (Sino Biological, no label) (human, UniProt P15692-4 27-191, limits assumed); experiment: dual (bridging) ELISA: human VEGF (no label) coated, antibody, then human PD-1 (His tag), anti-His-HRP
Description: Biological, no label) overnight, washed and blocked for 1 hour. Subsequently, the plate was added with gradient dilutions of the test antibody, incubated for 2 hours, then added with 1 μg/mL of human PD-1 (ACRO, His tag), incubated for 2 hours, washed, and incubated with HRP-labeled anti-His antibody for 1 hour. After TMB solution was added for color development, the OD450 nm absorbance value was read on a microplate reader.

[10] = target: T4, human PD-1 (ACRO, Fc tag); experiment: competition ELISA: human PD-1 (Fc tag) coated, antibody mixed with human PD-L1 (His tag), anti-His-HRP
Description: as §4

T1 sequence (Q15116 25-167 limits assumed): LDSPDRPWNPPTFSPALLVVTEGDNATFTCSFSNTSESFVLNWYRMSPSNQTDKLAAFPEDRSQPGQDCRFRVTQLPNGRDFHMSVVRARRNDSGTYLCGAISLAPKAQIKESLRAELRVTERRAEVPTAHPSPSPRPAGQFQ
Sequence of monkey PD-1 (ACRO, His tag) (B0LAJ3 entry or part of it limits assumed, form in doubt): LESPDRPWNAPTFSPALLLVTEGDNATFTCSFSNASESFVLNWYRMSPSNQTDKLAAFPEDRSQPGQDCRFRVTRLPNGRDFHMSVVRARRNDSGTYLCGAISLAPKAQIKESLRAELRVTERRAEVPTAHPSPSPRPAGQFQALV
T4 sequence (Q15116 25-167 limits assumed): as the sequence (Q15116 25-167 limits assumed) above

Binder	TOP OD [1] [OD450]	TOP OD [2] [OD450]	TOP OD [3] [OD450]	EC50 [4] [nM]	TOP OD [4] [OD450]	IC50 [5] [nM]	binding result [6]	binding result [7]	EC50 (human VEGF-A) [ng/mL]	EC50 (mouse VEGF-A) [ng/mL]	maximum inhibition rate (HUVEC proliferation) (VEGF) [%]	EC50 [1] [nM]	EC50 [2] [nM]	IC50 [8] [nM]	EC50 [9] [nM]	IC50 [10] [nM]	EC50 [3] [nM]
B1	0.067	0.127	0.151														
B2	0.061			0.608	3.09	5.84	no binding	no binding									
B3									9.33	6.46							
B4	3.65	3.38	2.58	0.579	1.75	3.25					~60	0.117	0.171	0.507	0.326	2.53	0.114
